From publication PMC11722253

How the values were obtained:
[1] = molecular target: T1, SPbeta integrase (SprA) (Bacillus subtilis phage SPbeta, UniProt O32006 1-545); assay: SEC
T1 sequence: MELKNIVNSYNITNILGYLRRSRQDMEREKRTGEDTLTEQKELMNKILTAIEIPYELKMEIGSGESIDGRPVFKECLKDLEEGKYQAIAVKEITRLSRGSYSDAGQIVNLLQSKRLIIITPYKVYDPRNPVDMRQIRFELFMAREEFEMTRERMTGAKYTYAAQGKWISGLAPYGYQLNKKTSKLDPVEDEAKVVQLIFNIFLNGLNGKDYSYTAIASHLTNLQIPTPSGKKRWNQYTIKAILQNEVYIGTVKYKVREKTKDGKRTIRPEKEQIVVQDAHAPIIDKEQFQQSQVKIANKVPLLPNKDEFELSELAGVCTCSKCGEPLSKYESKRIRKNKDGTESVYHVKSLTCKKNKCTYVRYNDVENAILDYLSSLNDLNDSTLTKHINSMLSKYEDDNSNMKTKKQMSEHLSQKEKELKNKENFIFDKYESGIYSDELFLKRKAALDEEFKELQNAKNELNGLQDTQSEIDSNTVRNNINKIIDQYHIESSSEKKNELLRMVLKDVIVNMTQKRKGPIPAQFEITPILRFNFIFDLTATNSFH

[2] = molecular target: T2, SPbeta integrase-RDF fusion (SprA-SprB) (Bacillus subtilis phage SPbeta, UniProt O32006 1-545+=TSGSGGSGGSGGSGRSGT+O34850:2-58, internal_change); assay: SEC
T2 sequence: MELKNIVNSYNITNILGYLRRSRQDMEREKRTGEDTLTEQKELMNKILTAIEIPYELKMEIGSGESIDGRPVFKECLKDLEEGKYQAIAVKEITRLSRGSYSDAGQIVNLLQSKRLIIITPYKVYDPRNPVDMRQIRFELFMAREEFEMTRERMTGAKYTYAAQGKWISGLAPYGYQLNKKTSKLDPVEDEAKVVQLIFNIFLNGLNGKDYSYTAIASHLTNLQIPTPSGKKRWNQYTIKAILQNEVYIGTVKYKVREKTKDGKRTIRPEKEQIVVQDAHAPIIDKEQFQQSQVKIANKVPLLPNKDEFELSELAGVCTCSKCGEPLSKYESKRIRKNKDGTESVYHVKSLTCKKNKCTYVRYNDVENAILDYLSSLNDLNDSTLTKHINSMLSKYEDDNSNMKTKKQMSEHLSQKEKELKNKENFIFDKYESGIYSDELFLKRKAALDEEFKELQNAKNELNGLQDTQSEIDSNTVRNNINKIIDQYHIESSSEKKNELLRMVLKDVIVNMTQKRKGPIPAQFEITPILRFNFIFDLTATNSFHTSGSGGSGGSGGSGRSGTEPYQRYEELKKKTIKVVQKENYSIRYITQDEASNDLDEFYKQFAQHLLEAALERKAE

B1: attPmm (dsDNA)
DNA 1: AAAAAAAAGGTAGTAAGTATCTTAAAAAACAGATTTAGCTGTATATTAAGATACTTACTAC
DNA 2: GTAGTAAGTATCTTAATATACAGCTTTATCTGTTTTTTAAGATACTTACTACTTTTTTTTT
B1: binds [1]; binds [2].
